A short description of the data set: yeast display, Sf9 membrane polyspecificity reagent, FACS + sequencing; frameworks hold sequencing errors. In outline:
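Polyreactivity labels are assigned by the sorting gate from which each nanobody was recovered. The gates were low and high (top ~1%), set on anti-HA fluorescence for expression and streptavidin fluorescence for reagent binding. Before sorting, galactose-induced (36–48 hours) yeast display cells were stained for 1 hour at 4 °C with 10% biotinylated, detergent-solubilized Sf9 membrane reagent.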
For “QVQLVESGGGLVQAGGSLRLSCAASGSIFRPNAMGWYRQAPGKERELVAAINTSDDSTYYADSVKGRFTISRDNAKNTVYLQMNSLKPEDTAVYYCASDGVVPGRFFWPAHEYDYWGQGTQVTVSS”, the “polyreactivity (PSR sort gate)” value is on record as “low polyreactivity”.
Then “QVQLVESGGGLVQAGGSLRLSCAASGSIFRPNTMGWYRQAPGKERELVAAIRYRGGGTYYADSVKGRFTISRDNAKNTVYLQMNSLKPEDTAVYFCNAPRRNWSYDYWGQGTQVTVSS”, with “high polyreactivity”; and “QVQLVESGGGLVQAGGSLRLSCAASGSIFRPYAMGWYRQAPGKERELVAAISVRGGRSYYADSVKGRFTISRDNAKNTVYLQMNSLKPEDTAVYYCNTVRQLGYTGYDYWGQGTQVTVSS”, with “high polyreactivity”; and “QVQLVESGGGLVQAGGSLRLSCAASGSIFRPYAMGWYRQAPGKERELVAGISLRGGSTSYADSVKGRFTISRDNAKNTVYLQMNSLKPEDTAVYYCAASYWWKGDSTYGYWGQGTQVTVSS”, with “high polyreactivity”.
In the case of “QVQLVESGGGLVQAGGSLRLSCAASGSIFRQNVMGWYRQAPGKERELVAAISRNGGSTYYADSVKGRFTISRDNAKNTVYFQMNSLKPEDTGVYYCAARGFRRYDYWGQGTQVTVSS” it was “high polyreactivity”; in that of “QVQLVESGGGLVQAGGSLRLSCAASGSIFRQYAMGWYRQAPGKERELVAAIRSGGSTYYADSVKGRFTISRDNAKNTVYLQMNSLKPEDTAVYYCATRYHWSGYYYWGQGTQVTVSS”, “high polyreactivity”; in that of “QVQLVESGGGLVQAGGSLRLSCAASGSIFRRFAMGWYRQAPGKEREFVAAISRSSDNTSYADSVKGRFTISRDNAKNTVYLQMNSLKPEDTAVYYCNADASWYGYWYYYWGQGTQVTVSS”, “low polyreactivity”.
Then “QVQLVESGGGLVQAGGSLRLSCAASGSIFRRNAMGWYRQAPGKERELVAAISQSGGSTYYADSVKGRFTISRDNAKNTVYLQMNSLKPEDTAVYYCAAKAHTVGGYAYYHTSTYYWGQGTQVTVSS”, with “high polyreactivity”.
For “QVQLVESGGGLVQAGGSLRLSCAASGSIFRRNAMGWYRQAPGKERELVATITSDGSTDYADSVKGRFTISRDNAKNTVYLQMNSLKPEDTAVYYCAADRGVYDPGDYWGQGTQVTVSS”, the “polyreactivity (PSR sort gate)” value is “low polyreactivity”.
In the case of “QVQLVESGGGLVQAGGSLRLSCAASGSIFRRNAMGWYRQAPGKERELVAVITRSGGSTYYADSVKGRFTISRDNAKTTVDLQMNSLKPEDTAVYYCDASRSSTRSFDYWGQGTQVTVSS” it was “high polyreactivity”; in that of “QVQLVESGGGLVQAGGSLRLSCAASGSIFRRNGMGWYRQAPGKERELVAAITYRGGNTNYADSVKGRFTISRDNAKNTVYFQMNRLKPEDTAVYYCAADTYGWWYAFEYWGQGTQVKVSS”, “low polyreactivity”; in that of “QVQLVESGGGLVQAGGSLRLSCAASGSIFRRNSMGWYRQAPGKERELVAAITRRGGSTYYADSVKGRFTISRDNAKNTVYLQMNSLKPEDTAVYYCAADPPDGFYYTWDYDYWGQGTQVTVSS”, “low polyreactivity”.
In the case of “QVQLVESGGGLVQAGGSLRLSCAASGSIFRRNTMGWYRQAPGKERELVAAITFTGGRTYYADSVKGRFTISRDYAKNTVYLQMNSLKPEDTAVYYCNRVTAYYPTKFDYWGQGTQVNVSS” it was “high polyreactivity”; in that of “QVQLVESGGGLVQAGGSLRLSCAASGSIFRRTTQGGYRQAPGKERELVAAITYRGGSTYYADSVKGRFTISRDNAKNTVYFQMHSLKPEDTAVYYCARYHWYYPVSKSDSWGQGTQVTVSS”, “high polyreactivity”.
With “QVQLVESGGGLVQAGGSLRLSCAASGSIFRRYAMGWYGQAPGKERELVAAISWSGGSTYYADSVKGRFTISRDNAKNTVYLQMNSLKPEDTAVYYCAARHRQQKLDYWGQGTQVTVSS”, the “polyreactivity (PSR sort gate)” value was “high polyreactivity”.
On to “QVQLVESGGGLVQAGGSLRLSCAASGSIFRRYAMGWYRQAPGKERELVAAISTRGGSTYYADSVKGRFTISRDNAKNTVYLQMNSLKPEDTAVYYCAVKGSGGPKYDYWGQGTQVTVAS”, for which the “polyreactivity (PSR sort gate)” value is on record as “high polyreactivity”.
Then “QVQLVESGGGLVQAGGSLRLSCAASGSIFRRYTMGWYRQAPRKERELVAAISRVGNTNYADSVKGRFTISRDNAKNTVYLQLNSLKPEDTAVYYCAARGIGYRYTPGLNYWGQGTQVTVSS”, with “high polyreactivity”; and “QVQLVESGGGLVQAGGSLRLSCAASGSIFRSYAMGWYRPAPGKERELVASITWRGGRTYYADSVKGRFTISRDNAKNTVYLQMNSLKPEDTAVYYCAVLWTPAGGYYFRYDYWGQGTQVTVSS”, with “low polyreactivity”.
Then “QVQLVESGGGLVQAGGSLRLSCAASGSIFRSYAMGWYRQAPGKEREFVAAIRNSSGRTYYADSVKGRFTISRDNAKNTVYLQMNSLKPEDTAVYYCAARLPRTYQGGKLYRLQYSWGQGTQVTVSS”, with “high polyreactivity”.
Then “QVQLVESGGGLVQAGGSLRLSCAASGSIFRSYAMGWYRQAPGKERELVAAITYSGGGTYYADSVKGRFTISRDNAKTTVYLQMNSLKPEDTAVYYCNAVGGIYDFDYWGQGTQVTVSS”, with “high polyreactivity”; and “QVQLVESGGGLVQAGGSLRLSCAASGSIFRSYAMGWYRQAPGKERELVAGISYSGGSTYYADSVKGRFTISRDNAKNTVYLQMNSLKPEDTAVYYCATVSYYDRYDYDYWGQGTQVTVSS”, with “low polyreactivity”.
As to “QVQLVESGGGLVQAGGSLRLSCAASGSIFRSYAMGWYRQAPGKERELVAGISYSGGSTYYADSVKGRFTISRDNAKNTVYLQMNSLKPEDTAVYYCNTRTGAFFLSKPYDYWGQGTQVTVSS”, the “polyreactivity (PSR sort gate)” value was “low polyreactivity”.
On to “QVQLVESGGGLVQAGGSLRLSCAASGSIFRSYAMGWYRQAPGKERELVASISRRGGSTYYADSVKGRFTISRDNAKNTVYFQMNSLKPEDTAVYYCAAVRYNSRVSTTPSEMYYWGQGTLVTVSS”, for which the “polyreactivity (PSR sort gate)” value is reported as “low polyreactivity”.
Then “QVQLVESGGGLVQAGGSLRLSCAASGSIFRSYDMGMYRQAPGKERELVADITRTGGNTYYADSVKGRFTISRDNAKNTVYLQMNSLKPEDTAVYYCAATYILTVSVFSYVWPYDYWGQGTQVTVSS”, with “high polyreactivity”.
Then “QVQLVESGGGLVQAGGSLRLSCAASGSIFRSYTMGWYRQAPGKEREFVAAITKRGGSTYYADSVKGRFTISRDNAKNTVYLQMNSLKPEDTAVYYCAAVAGHYYYFRELGYWGQGTQVTVSS”, with “high polyreactivity”.
Then “QVQLVESGGGLVQAGGSLRLSCAASGSIFRSYVMGWSRQAPGKERELVAAISRRGVRTFYADSVKGRFTISRDNAKNTVYLQMNSLKPEDTAVYYCAAQPYKGTGYDYWGQGTQVTVSS”, with “high polyreactivity”.
Consider “QVQLVESGGGLVQAGGSLRLSCAASGSIFRTYAMGWYRQSPGKERELVAAITSDGSTYYADSVKGRFTISRDNAKNTVYLKMNRLKPEDTAVYYFAAASQEYDYHYYYWGQGTQVTVSS”, for which the “polyreactivity (PSR sort gate)” value is reported as “low polyreactivity”.
Then “QVQLVESGGGLVQAGGSLRLSCAASGSIFRVNAMGWYRQAPGKERELVAAISRRGGRRYYADSVKGRFTISRDNAKNTVYLQMNSLKPEDTAVYYCAAGVSVSASPYNGFDYWGQGTQVTVSS”, with “high polyreactivity”; and “QVQLVESGGGLVQAGGSLRLSCAASGSIFRVYAMGWYRQAPGKERELVASISRRGGSTYYADSVKGRFTISRDNAKNTVYLQMNSLKPEDTAVYYCAAEFVIGGHGYDYWGQGTQVTVSS”, with “high polyreactivity”.
In the case of “QVQLVESGGGLVQAGGSLRLSCAASGSIFRVYAMGWYRQAPGKERELVAVGSTYYADSVKGRFTISRDNAKNTVYLQMNSLKPEDTAVYYCARRGKSRYSYHYWGQGTQVTVSS” it was “high polyreactivity”; in that of “QVQLVESGGGLVQAGGSLRLSCAASGSIFRVYMGWYRQAPGKERALVATIRWSSGSTYYADSVKGRFTISRDNAKNTVYLQMNSLKPEDTAVYYCAVKGPYYDDYDYWGQGTQGTVSS”, “low polyreactivity”; in that of “QVQLVESGGGLVQAGGSLRLSCAASGSIFRWYAMGWYRQAPGKERELVAAISKSGGTTYYADSVKGRFTISRDNAKNTVYLQMNSLKPEDTAVYYCAARRYPYGGYGYRYDYWGQGTQVTVSS”, “high polyreactivity”.
Then “QVQLVESGGGLVQAGGSLRLSCAASGSIFRWYAMGWYRQAPGKERELVAAITWSASRTYYADSVKGRFTISRDTAKNTVYLQMNSLKPEDTAVYYCAADHDGPYAGYDSWRQGTQVTVSS”, with “low polyreactivity”.
As to “QVQLVESGGGLVQAGGSLRLSCAASGSIFRYNAMGWYIQAPGKERELVAAISWNGARTYYADSVKGRFTISRDNAKNTVYLQMNSLKPEDTAVYYCNAGTFTRRRGLDYWGQGTQVTVSS”, the “polyreactivity (PSR sort gate)” value is recorded as “low polyreactivity”.
Then “QVQLVESGGGLVQAGGSLRLSCAASGSIFRYNAMGWYRPAPGTERELVAAITSGDSTYYADSVKGRFTISRDNAKNTVYLHMNSLKPEDTAVYYCARRSYATYSFRFDYWGQGTQVTVSS”, with “low polyreactivity”; and “QVQLVESGGGLVQAGGSLRLSCAASGSIFRYNAMGWYRQAPGTEREVVAGITSGGDTNYADSVKGRFTISRDNAKNTVYLQMNSLKPEDTAVYYCAKRWYGGRRYDYWGQGTQVTVSS”, with “low polyreactivity”; and “QVQLVESGGGLVQAGGSLRLSCAASGSIFRYNTKGWYRQATGKERELDAAINWSGGNTYYADSVKGRFTISRDNAKNTVYLQMNSLKPEDTAVYYCAARWPSYVSYRYYTKYDYWGQGTQVTVSS”, with “high polyreactivity”.
In the case of “QVQLVESGGGLVQAGGSLRLSCAASGSIFRYNTMGWYRQAPGKVRELVATITRRGGSTYYADSVKGRFTISRDNAKNTVYLQMNSVKPEDTAVYYCIADNFGGPYNYWGQGTQVTVSS” it was “low polyreactivity”; in that of “QVQLVESGGGLVQAGGSLRLSCAASGSIFRYYAKGWSRQAPGKERELVAAISRSGGSTYYADSVKGRFTISRDNAKNTVYLQMKSLKPEDTAVYYCAAEYRVRAQGYVYWGQGTQVTVSS”, “high polyreactivity”; in that of “QVQLVESGGGLVQAGGSLRLSCAASGSIFRYYAMGWYIQAPGKEMELVAAITSSGGSTYYADSVKGRFTISRDNAKNTVYLQMNSLKPEDTAVYDCNARHVRYSRRENDYWGQGTQGTVSS”, “high polyreactivity”.
In the case of “QVQLVESGGGLVQAGGSLRLSCAASGSIFRYYAMGWYRPAPGKERELVAAISSRGGRTYYADSVKGRFTISRDNAKNTVYLQMNSLIPEDTAVYYCAARRYRYTTPFRYGYDYWGQGTQVTVSS”, the “polyreactivity (PSR sort gate)” value is listed as “high polyreactivity”.

Values taken from the nanobody polyreactivity screen of Harvey et al. (2022).
